Literature values, collected in PMC4987277.

Target: C3d C3d (Homo sapiens) (UniProt P01024)
Sequence (P01024 1002-1303): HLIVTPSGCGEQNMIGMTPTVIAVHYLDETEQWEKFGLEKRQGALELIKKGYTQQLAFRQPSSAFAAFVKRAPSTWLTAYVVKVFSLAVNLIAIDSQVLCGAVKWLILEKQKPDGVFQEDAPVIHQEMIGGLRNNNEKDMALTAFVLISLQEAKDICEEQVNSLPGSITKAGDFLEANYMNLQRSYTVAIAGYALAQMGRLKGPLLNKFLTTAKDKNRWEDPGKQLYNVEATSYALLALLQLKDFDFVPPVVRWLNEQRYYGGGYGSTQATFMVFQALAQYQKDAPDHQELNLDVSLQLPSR

CR2, sequence (P20023 21-971): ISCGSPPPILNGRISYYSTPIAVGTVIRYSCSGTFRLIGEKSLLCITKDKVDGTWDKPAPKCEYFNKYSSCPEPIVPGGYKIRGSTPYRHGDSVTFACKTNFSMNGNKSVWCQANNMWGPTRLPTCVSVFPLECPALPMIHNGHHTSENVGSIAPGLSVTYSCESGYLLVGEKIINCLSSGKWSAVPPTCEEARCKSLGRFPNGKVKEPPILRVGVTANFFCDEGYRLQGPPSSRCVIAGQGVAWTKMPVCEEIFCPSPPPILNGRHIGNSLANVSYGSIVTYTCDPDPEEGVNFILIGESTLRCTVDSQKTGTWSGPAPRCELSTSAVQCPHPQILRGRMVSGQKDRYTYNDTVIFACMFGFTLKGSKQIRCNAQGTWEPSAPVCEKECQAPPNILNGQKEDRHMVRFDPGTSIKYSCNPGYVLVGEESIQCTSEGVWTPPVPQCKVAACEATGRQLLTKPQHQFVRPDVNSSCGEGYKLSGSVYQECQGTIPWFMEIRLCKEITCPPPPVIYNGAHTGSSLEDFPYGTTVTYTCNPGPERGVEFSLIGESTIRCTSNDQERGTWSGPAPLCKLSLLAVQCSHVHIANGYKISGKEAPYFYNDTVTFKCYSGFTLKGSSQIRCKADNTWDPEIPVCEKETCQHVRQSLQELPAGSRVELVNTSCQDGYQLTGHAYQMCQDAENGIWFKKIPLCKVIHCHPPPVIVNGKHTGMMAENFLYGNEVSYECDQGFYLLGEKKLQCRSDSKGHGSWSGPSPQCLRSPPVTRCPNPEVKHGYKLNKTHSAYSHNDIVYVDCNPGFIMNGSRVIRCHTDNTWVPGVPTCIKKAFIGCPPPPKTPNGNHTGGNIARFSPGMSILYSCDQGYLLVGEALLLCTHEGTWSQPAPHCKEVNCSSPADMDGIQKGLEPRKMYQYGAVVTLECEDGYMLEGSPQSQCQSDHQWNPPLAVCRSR

Kd: 500 nM
Substance: CR2 (from UniProt P20023)
